The values below come from patent US20120165244A1, “METHODS FOR BINDING LEWIS Y ANTIGEN” (priority 2008, published 2012).

One assay has as its system RAW 264.7 cells. The assay is described as follows: LPS-induced NO production in RAW 264.7 cells (Griess reagent). Particulars: pre-incubated with LPS, 6 hours incubation (FIG. 1B). The format is cell-based, murine. On the procedure:
(§1) Human leukemia monocytic THP-1 cells and murine macrophage cell line RAW 264.7 were obtained from the American Type Culture Collection. THP-1 cells were grown in suspension in RPMI-1640 supplemented with 10 mM HEPES, 1 mM sodium pyruvate, 0.1% β-mercaptoethanol, 100 U/ml penicillin, 100 µg/ml streptomycin, and 10% fetal bovine serum (FBS). RAW 264.7 cells were grown as an adhered layer in Dulbecco's modified Eagle's medium with 4 mM L-glutamine adjusted to contain 1.5 g/l sodium bicarbonate and 4.5 g/l glucose, 100 U/ml penicillin, […] streptomycin, and 10% FBS under a humidified 5% CO2 atmosphere at 37° C. For differentiation, THP-1 cells were plated in medium containing 10 nM PMA and allowed to adhere for 18 h.
TNF-α in conditioned medium or mouse serum was measured by an enzyme-linked immunosorbent assay (ELISA) (R&D Systems, Minneapolis, Minn.). Accumulation of nitrite in the medium or mouse serum was determined by a colorimetric assay using Griess reagent (Sigma-Aldrich). Blood urea nitrogen (BUN) and creatinine were measured with a Roche D&P modular (Roche Diagnostic Systems, Branchburg, N.J.). Assays were performed according to the manufacturer's protocol.
(The Griess reaction detects nitrite, a stable product of nitric oxide.)

A further assay deals with K. pneumoniae. The assay is described as follows: K. pneumoniae binding assay (coated wells). The following applies: FIG. 4A. On the procedure: K. pneumoniae (3×10^5 CFU/well), E. coli O111:B4 smooth-type LPS (5 μg/well), or bovine serum albumin (BSA, 5 μg/well) in 100 μL of bicarbonate buffer (pH 9.6) were coated onto wells of high-binding microtiter plate (Corning Costar, Cambridge, Mass.). Nonspecific binding was blocked with binding buffer (20 mM Tris-HCl, pH 7.4, 0.15 M NaCl, 5 mM CaCl2) containing 50 mg/mL BSA. Various concentrations of rTMD proteins without or with CD14 (10 μg/mL; R&D Systems) in binding buffer containing 1 mg/mL BSA were added to wells and incubated for 2 hours. In some experiments, 0.2 M mannose, 5 mM EDTA, or Le^y were included in the binding buffer to compete with LPS and rTMD1 binding. Antibody against the c-Myc epitope of the rTMD proteins was added to wells and incubated for 2 hours, and peroxidase-labeled secondary antibody followed. Binding of rTMD proteins was detected by measuring absorbance at 450 nm.

Assay [1] deals with T1, binding of LPS binding protein to LPS (Homo sapiens, UniProt P18428).
T1 sequence (P18428 26-481): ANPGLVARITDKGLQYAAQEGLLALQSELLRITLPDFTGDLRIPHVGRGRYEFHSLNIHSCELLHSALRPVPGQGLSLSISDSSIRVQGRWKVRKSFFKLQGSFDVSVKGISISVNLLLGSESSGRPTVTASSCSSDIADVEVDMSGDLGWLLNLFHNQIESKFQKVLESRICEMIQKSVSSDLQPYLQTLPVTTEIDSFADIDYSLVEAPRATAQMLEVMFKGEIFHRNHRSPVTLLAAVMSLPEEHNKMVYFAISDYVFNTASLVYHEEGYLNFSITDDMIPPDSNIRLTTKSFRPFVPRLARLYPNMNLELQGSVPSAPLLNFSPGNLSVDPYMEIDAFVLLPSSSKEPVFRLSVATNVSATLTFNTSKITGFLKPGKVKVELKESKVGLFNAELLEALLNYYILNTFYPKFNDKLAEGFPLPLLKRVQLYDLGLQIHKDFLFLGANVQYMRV
Description: Binding of LPS binding protein to LPS. The following applies: data not shown.

The subject of another assay is E. coli DH5α. Description: Bacterial agglutination, FITC-labeled E. coli DH5α. Particulars: 20 μg/mL protein, 5 mM CaCl2. On the procedure: K. pneumoniae and E. coli DH5α (BCRC) were washed twice in 0.1 M sodium bicarbonate buffer (pH 9.6) and incubated with 0.1 mg/mL fluorescein isothiocyanate (FITC) at 37° C. in the dark. Each of 20 μg/mL of rTMD1, non-tagged rTMD1, mammalian rTMD1, and recombinant TM domains 2 and 3 (rTMD23) was co-incubated with FITC-labeled bacteria (1×10^5CFU/mL) in buffer (20 mM Tris, pH 7.4, 0.15 M NaCl, 5 mM CaCl2, 1 mg/mL BSA) with or without 0.2 M mannose or 5 mM EDTA. Samples were individually placed on a glass slide and fluorescently-labeled bacteria were observed microscopically to evaluate agglutination.

For a further assay, the system named is THP-1 cells. The assay is described as follows: THP-1 phagocytosis assay with FITC-labeled K. pneumoniae. Type of assay: cell-based, Human. Particulars: activated THP-1 cells. On the procedure:
as §1
FITC-labeled K. pneumoniae (1×10^5 CFU/well) were pre-incubated with rTMD1 at 37° C. for 30 minutes before adding to differentiated THP-1 cells. After incubation for 2 hours the THP-1 cells were washed twice with ice-cold PBS prior to fluorescence microscopy, or were further trypsinized, resuspended in PBS, and analyzed in a fluorescence-activated cell sorter (FACS; Becton Dickinson, San Jose, Calif.) to measure THP-1 cell intracellular fluorescence. Green fluorescence data from 10,000 events (cells) per condition collected at 530 nm on a log scale were analyzed with CellQuest™ software (Becton Dickinson).

B1: rTMD1: recombinant human thrombomodulin N-terminal lectin-like domain (residues Ala1-Ala155) with 6×His tag and c-Myc epitope, Pichia pastoris expressed (protein)
chain: EFAPAEPQPGGSQCVEHDCFALYPGPATFLNASQICDGLRGHLMTVRSSVAADVISLLLNGDGGVGRRRLWIGLQLPPGCGDPKRLGPLRGFQWVTGDNNTSYSRWARLDLNGAPLCGPLCVAVSAAEATVPSEPIWEEQQCEVKADGFLCEFHFPAYLEDDDDKIEQKLISEEDLNSAVDHHHHHH
modifications: left off: small tags and cut ends
With B1, the “NO production in RAW 264.7 cells” value in the assay on RAW 264.7 cells is “effectively inhibit”. The “binding to K. pneumoniae” value in the assay with K. pneumoniae is listed as “specifically bind”. The “binding of LPS binding protein to LPS” value in assay [1] is on record as “not inhibited”. Further, the “agglutination of E. coli DH5α” value in the assay with E. coli DH5α was “induced marked agglutination”. Also, the “bacterial phagocytosis by THP-1 cells” value in the assay on THP-1 cells was “markedly increased”.
